# Experimental data from patent publication US20030092885A1, “Solubility and stability enhancement tag for structural and ligand binding studies of proteins” (President and Fellows of Harvard College, priority 2001, published 2003).
# B1: DFF45 NTD: N-terminal domain of human DNA fragmentation factor 45, unfolded when free (protein, UniProt O00273 1-116, looked up, fragment)
# chain: MEVTGDAGVPESGEIRTLKPCLLRRNYSREQHGVAASCLEDLRSKACDILAIDKSLTPVTLVLAEDGTIVDDDDYFLCLPSNTKFVALASNEKWAYNNSDGGTAWISQESFDVDET
# B2: FAIM protein: 20 kDa apoptosis inhibitor in b cells, untagged (protein, UniProt Q9NVQ4 2-179, looked up)
# Fas apoptotic inhibitory …: TDLVAVWDVALSDGVHKIEFEHGTTSGKRVVYVDGKEEIRKEWMFKLVGKETFYVGAAKTKATINIDAISGFAYEYTLEINGKSLKKYMEDRSKTTNTWVLHMDGENFRIVLEKDAMDVWCNGKKLETAGEFVDDGTETHFSIGNHDCYIKAVSSGKRKEGIIHTLIVDNREIPEIAS
# Experiments:
# [1] = Solubility of target protein or complex with and without the small solubility and stability enhancing tag; format: physicochemical
# [2] = Solution stability (time until the sample precipitates) with and without the tag; format: physicochemical; conditions: FAIM, 25° C.
Molecule,solubility ([1]; FIG. 4 legend) [µM],can be concentrated up to ([1]; FAIM),time until precipitation from solution / stable in solution [2]
B1,200,–,–
B2,–,up to 1 mM,one week
